This is an account of results in article PMC12507517.

For this data set, the target named is RelA homodimer (UniProt Q04206). The data set can be described thus: BLI. Conditions: EMSA: 10 mM Tris-HCl pH 7.5, 50 mM NaCl, 10% glycerol, 1% NP-40, 1 mM EDTA, 0.1 mg/mL salmon sperm DNA, room temp; BLI: 25 mM Tris-HCl pH 7.5, 150 mM NaCl ….
Chain of RelA homodimer (Q04206 whole entry): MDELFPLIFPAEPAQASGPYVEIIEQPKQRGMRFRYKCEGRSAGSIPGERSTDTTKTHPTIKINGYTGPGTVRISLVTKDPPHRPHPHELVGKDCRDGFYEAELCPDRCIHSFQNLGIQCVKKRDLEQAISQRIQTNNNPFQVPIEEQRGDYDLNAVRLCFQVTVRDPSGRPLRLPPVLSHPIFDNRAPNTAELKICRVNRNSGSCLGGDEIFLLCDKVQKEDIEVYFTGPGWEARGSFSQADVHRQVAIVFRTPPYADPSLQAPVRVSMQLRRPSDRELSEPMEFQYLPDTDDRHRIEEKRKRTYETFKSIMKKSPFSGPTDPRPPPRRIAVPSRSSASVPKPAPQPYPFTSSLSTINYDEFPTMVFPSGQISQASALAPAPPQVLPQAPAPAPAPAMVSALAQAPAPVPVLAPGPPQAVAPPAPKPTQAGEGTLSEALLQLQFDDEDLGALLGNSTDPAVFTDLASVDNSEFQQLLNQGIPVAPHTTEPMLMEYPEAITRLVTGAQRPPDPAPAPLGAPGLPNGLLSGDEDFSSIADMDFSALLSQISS

The Kd is the equilibrium constant for the complex coming apart. The substance IFN-b1 kB (strong) displayed a Kd of 27 nM. The figure for STX11 kB (weak) is 250 nM.
